{
  "source": "the RNAGym collection of RNA variant scans (doi:10.1093/molbev/msab373)",
  "parents": {"B1": {"name": "Azoarcus group I ribozyme (parent)", "chain": "GUGCCUUGCGCCGGGAAACCACGCAAGGGAUGGUGUCAAAUUCGGCGAAACCUAAGCGCCCGCCCGGGCGUAUGGCAACGCCGAGCCAAGCUUCGGCGCCUGCGCCGAUGAAGGUGUAGAGACUAGACGGCACCCACCUAAGGCAAACGCUAUGGUGAAGGCAUAGUCCAGGGAGUGGCGAAAGUCACACAAACCGG"}},
  "data": [
    {"variants_of": "B1", "experiment": "reverse-splicing fitness (ratio to wild type); higher = more active; in vitro selection; Mg2+ level not given", "how_it_was_run": "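An in vitro group I ribozyme library with randomized positions was T7-transcribed and gel-purified. In triplicate, 10 pmol RNA in EPPS pH 7.5 was reacted with 50 pmoles of a 30-nt RNA substrate for 1 h at 37 °C across several added MgCl2 levels (1–48 mM), then stopped with EDTA. Products were reverse transcribed from a substrate-complementary primer, PCR-amplified and sequenced (HiSeq 4000). Fitness is a variant's read proportion after selection over that before, normalised to wild type.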", "values": [
      {"variant": "GUGCCUUGCGCCGGGAAACCACGCAAGGGAUGGUGUCAAAUUCGGCGAAACCUAAGCGCCCGCCCGGGCGUAUGGCAACGCUGAGCCAAGCUUCGGCGCCUGCGCCGAUGCAGGUGUAGUGACUAGACGGCACCCACCUAAGGCCAACGCUAUGGUGAAGGCAUAGUCUAGGGAGAGGCGAAAGUCACACAAACCGG", "reverse-splicing fitness": 0.00335},
      {"variant": "GUGCCUUGCGCCGGGAAACCACGCAAGGGAUGGUGUCAAAUUCGGCGAAACCUAAGCGCCCGCCCGGGCGUAUGGCAACGCUGAGCCAAGCUUCGGCGCCUGCGCCGAUGCAGGUGUAGUGACUAGACGGCACCCACCUAAGGCCAACGCUAUGGUGAAGGCAUAGUCUAGGGAGCGGCGAAAGUCACACAAACCGG", "reverse-splicing fitness": 0.00263},
      {"variant": "GUGCCUUGCGCCGGGAAACCACGCAAGGGAUGGUGUCAAAUUCGGCGAAACCUAAGCGCCCGCCCGGGCGUAUGGCAACGCUGAGCCAAGCUUCGGCGCCUGCGCCGAUGCAGGUGUAGUGACUAGACGGCACCCACCUAAGGCCAACGCUAUGGUGAAGGCAUAGUCUAGGGAGGGGCGAAAGUCACACAAACCGG", "reverse-splicing fitness": 0.00205},
      {"variant": "GUGCCUUGCGCCGGGAAACCACGCAAGGGAUGGUGUCAAAUUCGGCGAAACCUAAGCGCCCGCCCGGGCGUAUGGCAACGCUGAGCCAAGCUUCGGCGCCUGCGCCGAUGCAGGUGUAGUGACUAGACGGCACCCACCUAAGGCCAACGCUAUGGUGAAGGCAUAGUCUAGGGAGUGGCGAAAGUCACACAAACCGG", "reverse-splicing fitness": 0.0039},
      {"variant": "GUGCCUUGCGCCGGGAAACCACGCAAGGGAUGGUGUCAAAUUCGGCGAAACCUAAGCGCCCGCCCGGGCGUAUGGCAACGCUGAGCCAAGCUUCGGCGCCUGCGCCGAUGCAGGUGUAGUGACUAGACGGCACCCACCUAAGGCGAACGAUAUGGUGAAGGCAUAGUCAAGGGAGAGGCGAAAGUCACACAAACCGG", "reverse-splicing fitness": 0.00664},
      {"variant": "GUGCCUUGCGCCGGGAAACCACGCAAGGGAUGGUGUCAAAUUCGGCGAAACCUAAGCGCCCGCCCGGGCGUAUGGCAACGCUGAGCCAAGCUUCGGCGCCUGCGCCGAUGCAGGUGUAGUGACUAGACGGCACCCACCUAAGGCGAACGAUAUGGUGAAGGCAUAGUCAAGGGAGGGGCGAAAGUCACACAAACCGG", "reverse-splicing fitness": 0.00278},
      {"variant": "GUGCCUUGCGCCGGGAAACCACGCAAGGGAUGGUGUCAAAUUCGGCGAAACCUAAGCGCCCGCCCGGGCGUAUGGCAACGCUGAGCCAAGCUUCGGCGCCUGCGCCGAUGCAGGUGUAGUGACUAGACGGCACCCACCUAAGGCGAACGAUAUGGUGAAGGCAUAGUCAAGGGAGCGGCGAAAGUCACACAAACCGG", "reverse-splicing fitness": 0.00409},
      {"variant": "GUGCCUUGCGCCGGGAAACCACGCAAGGGAUGGUGUCAAAUUCGGCGAAACCUAAGCGCCCGCCCGGGCGUAUGGCAACGCUGAGCCAAGCUUCGGCGCCUGCGCCGAUGCAGGUGUAGUGACUAGACGGCACCCACCUAAGGCCAACGCUAUGGUGAAGGCAUAGUCCAGGGAGGGGCGAAAGUCACACAAACCGG", "reverse-splicing fitness": 0.00296},
      {"variant": "GUGCCUUGCGCCGGGAAACCACGCAAGGGAUGGUGUCAAAUUCGGCGAAACCUAAGCGCCCGCCCGGGCGUAUGGCAACGCUGAGCCAAGCUUCGGCGCCUGCGCCGAUGCAGGUGUAGUGACUAGACGGCACCCACCUAAGGCCAACGCUAUGGUGAAGGCAUAGUCCAGGGAGAGGCGAAAGUCACACAAACCGG", "reverse-splicing fitness": 0.00655},
      {"variant": "GUGCCUUGCGCCGGGAAACCACGCAAGGGAUGGUGUCAAAUUCGGCGAAACCUAAGCGCCCGCCCGGGCGUAUGGCAACGCUGAGCCAAGCUUCGGCGCCUGCGCCGAUGCAGGUGUAGUGACUAGACGGCACCCACCUAAGGCCAACGCUAUGGUGAAGGCAUAGUCCAGGGAGCGGCGAAAGUCACACAAACCGG", "reverse-splicing fitness": 0.00705},
      {"variant": "GUGCCUUGCGCCGGGAAACCACGCAAGGGAUGGUGUCAAAUUCGGCGAAACCUAAGCGCCCGCCCGGGCGUAUGGCAACGCUGAGCCAAGCUUCGGCGCCUGCGCCGAUGCAGGUGUAGUGACUAGACGGCACCCACCUAAGGCGAACGAUAUGGUGAAGGCAUAGUCCAGGGAGGGGCGAAAGUCACACAAACCGG", "reverse-splicing fitness": 0.00319},
      {"variant": "GUGCCUUGCGCCGGGAAACCACGCAAGGGAUGGUGUCAAAUUCGGCGAAACCUAAGCGCCCGCCCGGGCGUAUGGCAACGCUGAGCCAAGCUUCGGCGCCUGCGCCGAUGCAGGUGUAGUGACUAGACGGCACCCACCUAAGGCGAACGAUAUGGUGAAGGCAUAGUCCAGGGAGCGGCGAAAGUCACACAAACCGG", "reverse-splicing fitness": 0.00717},
      {"variant": "GUGCCUUGCGCCGGGAAACCACGCAAGGGAUGGUGUCAAAUUCGGCGAAACCUAAGCGCCCGCCCGGGCGUAUGGCAACGCUGAGCCAAGCUUCGGCGCCUGCGCCGAUGCAGGUGUAGUGACUAGACGGCACCCACCUAAGGCGAACGAUAUGGUGAAGGCAUAGUCCAGGGAGAGGCGAAAGUCACACAAACCGG", "reverse-splicing fitness": 0.00653},
      {"variant": "GUGCCUUGCGCCGGGAAACCACGCAAGGGAUGGUGUCAAAUUCGGCGAAACCUAAGCGCCCGCCCGGGCGUAUGGCAACGCUGAGCCAAGCUUCGGCGCCUGCGCCGAUGCAGGUGUAGUGACUAGACGGCACCCACCUAAGGCGAACGAUAUGGUGAAGGCAUAGUCUAGGGAGUGGCGAAAGUCACACAAACCGG", "reverse-splicing fitness": 0.0043},
      {"variant": "GUGCCUUGCGCCGGGAAACCACGCAAGGGAUGGUGUCAAAUUCGGCGAAACCUAAGCGCCCGCCCGGGCGUAUGGCAACGCUGAGCCAAGCUUCGGCGCCUGCGCCGAUGCAGGUGUAGUGACUAGACGGCACCCACCUAAGGCGAACGAUAUGGUGAAGGCAUAGUCAAGGGAGUGGCGAAAGUCACACAAACCGG", "reverse-splicing fitness": 0.00616}
    ]}
  ]
}
